Measurements as given in PMC11493965, “Ethane-oxidising archaea couple CO2 generation to F420 reduction” (Nature Communications, 2024).

Target: ζ subunit (F420-reductase subunit) of the CODH component of the ACDS from Candidatus Ethanoperedens thermophilum (Candidatus Ethanoperedens thermophilum)
Assay: crystal structure; α2ε2ζ2 ACDS subcomplex purified natively as one complex; sitting drop, anaerobic, 20 °C, 20% PEG 6000, 100 mM MES pH 6.0, 200 mM ammonium chloride, 1 mM FAD and FMN added; refined to 1.89 Å

stoichiometry N: 2
Substance: ζ subunit (F420-reductase subunit) of the CODH component of the ACDS from Candidatus Ethanoperedens thermophilum (natural protein)
